Experiments:
CRD3-4 [1] = target: T1, CRD3-4; assay: ELISA, coated CD137-Fc protein 2 µg/mL, antibody 10 or 5 µg/mL, absorbance 620 nm; Non (uncoated well) 0.101
T1 construct: also called fragmented human CD137-Fc fusion protein CRD3-4

[2] = target: full-length human CD137-Fc fusion protein (human); assay: as above
CRD1-2 [3] = target: T2, CRD1-2; assay: as above
T2 construct: also called fragmented human CD137-Fc fusion protein CRD1-2

CRD2-4 [4] = target: T3, CRD2-4; assay: as above
T3 construct: also called fragmented human CD137-Fc fusion protein CRD2-4
T3 sequence (chain, as listed by the source limits assumed): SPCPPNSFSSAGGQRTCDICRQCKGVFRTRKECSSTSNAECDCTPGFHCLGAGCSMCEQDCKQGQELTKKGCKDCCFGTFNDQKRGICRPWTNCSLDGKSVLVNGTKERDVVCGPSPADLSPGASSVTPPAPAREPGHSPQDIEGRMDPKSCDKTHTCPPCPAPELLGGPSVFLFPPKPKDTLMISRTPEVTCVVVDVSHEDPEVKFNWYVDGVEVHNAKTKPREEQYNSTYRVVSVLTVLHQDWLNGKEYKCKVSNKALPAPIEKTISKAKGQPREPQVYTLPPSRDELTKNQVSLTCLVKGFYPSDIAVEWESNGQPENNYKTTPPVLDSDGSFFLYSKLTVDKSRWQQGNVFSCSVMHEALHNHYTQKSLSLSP

CRD2-3 [5] = target: T4, CRD2-3; assay: as above
T4 construct: also called fragmented human CD137-Fc fusion protein CRD2-3
T4 sequence (chain, as listed by the source limits assumed): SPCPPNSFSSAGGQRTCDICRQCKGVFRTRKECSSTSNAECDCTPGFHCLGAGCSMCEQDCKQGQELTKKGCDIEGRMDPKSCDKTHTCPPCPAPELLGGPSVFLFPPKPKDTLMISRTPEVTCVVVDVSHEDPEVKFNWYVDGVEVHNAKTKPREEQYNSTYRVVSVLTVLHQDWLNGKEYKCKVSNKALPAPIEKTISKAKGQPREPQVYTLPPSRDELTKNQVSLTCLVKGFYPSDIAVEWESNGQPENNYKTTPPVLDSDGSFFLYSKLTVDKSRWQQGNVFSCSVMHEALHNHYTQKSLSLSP

CRD1-3 [6] = target: T5, CRD1-3; assay: as above
T5 construct: also called fragmented human CD137-Fc fusion protein CRD1-3
T5 sequence (chain, as listed by the source limits assumed): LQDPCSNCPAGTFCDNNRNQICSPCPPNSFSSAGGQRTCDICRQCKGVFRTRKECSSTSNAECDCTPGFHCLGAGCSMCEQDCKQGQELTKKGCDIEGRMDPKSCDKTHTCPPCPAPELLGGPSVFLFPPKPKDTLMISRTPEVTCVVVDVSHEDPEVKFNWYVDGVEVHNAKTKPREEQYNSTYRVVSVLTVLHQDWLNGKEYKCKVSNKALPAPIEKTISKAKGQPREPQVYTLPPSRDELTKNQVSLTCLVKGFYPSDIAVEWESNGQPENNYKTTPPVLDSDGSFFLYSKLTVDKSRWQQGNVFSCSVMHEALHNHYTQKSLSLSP

CRD3-4 [7] = target: T1, CRD3-4; assay: ELISA, coated CD137-Fc protein 2 µg/mL, antibody 10 or 5 µg/mL; absorbance 620 nm divided by that of the uncoated well
[8] = target: full-length human CD137-Fc fusion protein (human); assay: as above
CRD1-2 [9] = target: T2, CRD1-2; assay: as above
CRD2-4 [10] = target: T3, CRD2-4; assay: as above
CRD2-3 [11] = target: T4, CRD2-3; assay: as above
CRD1-3 [12] = target: T5, CRD1-3; assay: as above
CRD1 [13] = target: T6, CRD1; assay: ELISA, coated CD137-Fc protein 2 µg/mL, antibody 10 or 5 µg/mL, absorbance 620 nm; Non (uncoated well) 0.4435
T6 construct: also called fragmented human CD137-Fc fusion protein CRD1
T6 sequence (chain, as listed by the source limits assumed): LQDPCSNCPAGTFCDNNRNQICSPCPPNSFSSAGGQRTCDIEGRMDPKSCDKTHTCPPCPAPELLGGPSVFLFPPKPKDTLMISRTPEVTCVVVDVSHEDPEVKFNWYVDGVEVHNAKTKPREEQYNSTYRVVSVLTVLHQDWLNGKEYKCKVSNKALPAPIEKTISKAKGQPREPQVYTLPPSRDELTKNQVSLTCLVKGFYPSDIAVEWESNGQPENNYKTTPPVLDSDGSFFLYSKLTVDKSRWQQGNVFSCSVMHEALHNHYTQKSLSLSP

CRD3-4 [14] = target: T1, CRD3-4; assay: as above
[15] = target: full-length human CD137-Fc fusion protein (human); assay: as above
CRD1-2 [16] = target: T2, CRD1-2; assay: as above
CRD2-4 [17] = target: T3, CRD2-4; assay: as above
CRD2-3 [18] = target: T4, CRD2-3; assay: as above
CRD1-3 [19] = target: T5, CRD1-3; assay: as above
CRD1 [20] = target: T6, CRD1; assay: ELISA, coated CD137-Fc protein 2 µg/mL, antibody 10 or 5 µg/mL; absorbance 620 nm divided by that of the uncoated well
CRD1 [21] = target: T6, CRD1; assay: ELISA, coated CD137-Fc protein 2 µg/mL, antibody 10 or 5 µg/mL, absorbance 620 nm; Non (uncoated well) 0.055
Protocol: (§1) Fragmented human CD137-Fc fusion proteins were diluted to 2 μg/mL in an aqueous sodium carbonate solution adjusted to pH9.6. Fifty μL of a diluted fragmented human CD137-Fc fusion protein was added individually to each well of a Nunc MaxiSorp flat-bottom 96 well plate (Nunc). This was allowed to stand at 4° C. overnight or longer, and then the plate was allowed to stand at room temperature for one hour so that the plate has the same temperature as the room temperature. The solution containing the fragmented human CD137-Fc fusion protein was removed by tilting, and each well was washed three times with 300 μL of Wash buffer (TBS containing 0.1% Tween20, TaKaRa). Next, 150 μL of blocking buffer (TBS containing 2% BSA) was added to each well, and this was allowed to stand for one hour or more. The blocking buffer was removed by tilting, and each well was washed three times with Wash Buffer in a similar manner to an earlier step. Then, 50 μL of an antibody solution prepared in advance by dilution with TBS to 10 μg/mL or 5 μg/mL was added to each well. This was subjected to a speed of 600 rpm or so for one hour at room temperature to bind the antibody to the immobilized antigen. […] 100 μL of a secondary antibody solution produced by 1000-fold dilution with TBS containing 0.1% Tween20 was added to each well. For the secondary antibody, ANTIBODY ALKALINE PHOSPHATASE CONJUGATE HUMAN IMMUNOGLOBULIN ABSORBED Goat Anti-Human Kappa Alkaline Phosphate from BIOSOURCE was used in the case of antibodies carrying a Kappa chain, and Human Lambda Light Chain Antibody; Goat anti-Human Lambda Light Chain Antibody Alkaline Phosphatase Conjugated from BETHYL LABORATORIES INC. was used in the case of antibodies carrying a Lambda chain. […] Color development was performed using the BluePhos Microwell kit from KPL. After the chromogenic reaction was stopped using the AP stop solution from KPL, the absorbance was measured at 620 nm on an absorptiometer.

CRD3-4 [22] = target: T1, CRD3-4; assay: as above
Protocol: as §1

CRD1-2 [23] = target: T2, CRD1-2; assay: as above
Protocol: as §1

CRD1 [24] = target: T6, CRD1; assay: ELISA, coated CD137-Fc protein 2 µg/mL, antibody 10 or 5 µg/mL, absorbance 620 nm; Non (uncoated well) 0.049
CRD3-4 [25] = target: T1, CRD3-4; assay: as above
[26] = target: full-length human CD137-Fc fusion protein (human); assay: as above
CRD1-2 [27] = target: T2, CRD1-2; assay: as above
CRD2-4 [28] = target: T3, CRD2-4; assay: as above
CRD2-3 [29] = target: T4, CRD2-3; assay: as above
CRD1-3 [30] = target: T5, CRD1-3; assay: as above

T1 sequence (chain, as listed by the source limits assumed): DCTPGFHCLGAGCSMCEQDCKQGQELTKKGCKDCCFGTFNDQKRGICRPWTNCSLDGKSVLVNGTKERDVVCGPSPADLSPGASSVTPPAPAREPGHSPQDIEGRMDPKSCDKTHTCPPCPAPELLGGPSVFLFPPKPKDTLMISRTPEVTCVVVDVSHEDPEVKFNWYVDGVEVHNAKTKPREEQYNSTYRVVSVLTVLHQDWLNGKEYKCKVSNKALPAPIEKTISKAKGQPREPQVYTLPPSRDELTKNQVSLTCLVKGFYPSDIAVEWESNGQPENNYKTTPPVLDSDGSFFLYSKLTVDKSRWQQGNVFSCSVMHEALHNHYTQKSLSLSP
full-length human CD137-Fc fusion protein (human), sequence (chain, as listed by the source limits assumed): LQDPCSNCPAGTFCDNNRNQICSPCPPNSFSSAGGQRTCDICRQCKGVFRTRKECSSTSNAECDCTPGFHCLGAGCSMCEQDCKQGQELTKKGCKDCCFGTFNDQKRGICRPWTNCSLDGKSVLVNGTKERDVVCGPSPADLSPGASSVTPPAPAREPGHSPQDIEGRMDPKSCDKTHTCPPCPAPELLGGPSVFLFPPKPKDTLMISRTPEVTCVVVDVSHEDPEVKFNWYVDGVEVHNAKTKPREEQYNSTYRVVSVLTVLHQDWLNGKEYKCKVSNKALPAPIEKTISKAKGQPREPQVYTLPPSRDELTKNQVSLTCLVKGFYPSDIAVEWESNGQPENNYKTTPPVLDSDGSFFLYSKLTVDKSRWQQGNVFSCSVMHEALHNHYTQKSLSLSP
T2 sequence (chain, as listed by the source limits assumed): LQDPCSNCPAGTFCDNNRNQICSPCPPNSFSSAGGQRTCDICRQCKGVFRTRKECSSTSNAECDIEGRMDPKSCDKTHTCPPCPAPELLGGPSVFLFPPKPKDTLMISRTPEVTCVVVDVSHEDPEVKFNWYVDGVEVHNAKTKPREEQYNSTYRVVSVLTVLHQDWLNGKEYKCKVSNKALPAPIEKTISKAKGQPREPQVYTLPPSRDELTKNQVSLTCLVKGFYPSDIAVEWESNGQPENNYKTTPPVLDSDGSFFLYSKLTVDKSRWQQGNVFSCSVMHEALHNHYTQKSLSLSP

B1: R10 (antibody, V domains shown)
VH: not shown
VL: DIQMTQSPSSLSASVGDRVTITCRASQSISSYLNWYQQKPGKAPKLLIYAASSLQSGVPSRFSGSGSGTDFTLTISSLQPEDFATYYCQQFDNFPLTFGGGTKVEIK
notes: Synthetic library clone; Fab on phage in the phage ELISA
In the case of B1, the “ELISA color development level” value (CRD3-4 [1]) is reported as 2.75, the “ELISA color development level” value [2] is reported as 2.59 and the “ELISA color development level” value (CRD1-2 [3]) is reported as 0.222. For the same binder, the “ELISA color development level” value (CRD2-4 [4]) was 2.46, the “ELISA color development level” value (CRD2-3 [5]) was 2.64 and the “ELISA color development level” value (CRD1-3 [6]) was 2.46. For the same binder, the “Ratio with respect to Non-Coating” value (CRD3-4 [7]) was 27.2, the “Ratio with respect to Non-Coating” value [8] was 25.6 and the “Ratio with respect to Non-Coating” value (CRD1-2 [9]) was 2.2. The “Ratio with respect to Non-Coating” value (CRD2-4 [10]) was 24.3, the “Ratio with respect to Non-Coating” value (CRD2-3 [11]) was 26.1 and the “Ratio with respect to Non-Coating” value (CRD1-3 [12]) was 24.4.

B2: R7 (antibody, V domains shown)
VH: QVQLLESGGGLVQPGGSLRLSCAASGFTFSSYAMSWVRQAPGKGLEWVSAISGSGGSTYYADSVKGRFTISRDNSKNTLYLQMNSLRAEDTAVYYCARDRAMYHPSFNYWGQGTLVTVSS
VL: DIQMTQSPSSLSASVGDRVTITCRASQSISSYLNWYQQKPGKAPKLLIYAASSLQSGVPSRFSGSGSGTDFTLTISSLQPEDFATYYCQQFNSYPLTFGGGTKVEIK
notes: as for B1
B2 was tested, and the “ELISA color development level” value (CRD1 [13]) was 0.61, the “ELISA color development level” value (CRD3-4 [14]) was 2.63 and the “ELISA color development level” value [15] was 1.92. The “ELISA color development level” value (CRD1-2 [16]) was 0.814, the “ELISA color development level” value (CRD2-4 [17]) was 2.19 and the “ELISA color development level” value (CRD2-3 [18]) was 2.52. The “ELISA color development level” value (CRD1-3 [19]) was 2.23, the “Ratio with respect to Non-Coating” value (CRD1 [20]) was 1.4 and the “Ratio with respect to Non-Coating” value (CRD3-4 [7]) was 5.9. For the same binder, the “Ratio with respect to Non-Coating” value [8] was 4.3, the “Ratio with respect to Non-Coating” value (CRD1-2 [9]) was 1.8 and the “Ratio with respect to Non-Coating” value (CRD2-4 [10]) was 4.9. The “Ratio with respect to Non-Coating” value (CRD2-3 [11]) was 5.7 and the “Ratio with respect to Non-Coating” value (CRD1-3 [12]) was 5.

B3: M (antibody, human IgG1, lambda, V domains shown)
VH: EVQLVQSGAEVKKPGESLRISCKGSGYSFSTYWISWVRQMPGKGLEWMGKIYPGDSYTNYSPSFQGQVTISADKSISTAYLQWSSLKASDTAMYYCARGYGIFDYWGQGTLVTVSS
VL: SYELTQPPSVSVSPGQTASITCSGDNIGDQYAHWYQQKPGQSPVLVIYQDKNRPSGIPERFSGSNSGNTATLTISGTQAMDEADYYCATYTGFGSLAVFGGGTKLTVLQ
notes: also called Control M
In the case of B3, the “Ratio with respect to Non-Coating” value (CRD3-4 [7]) is reported as 41.1, the “ELISA color development level” value (CRD1 [21]) is reported as 0.093 and the “ELISA color development level” value (CRD3-4 [22]) is reported as 2.26. The “ELISA color development level” value (CRD1-2 [23]) was 0.085.

B4: B (antibody, human IgG1, kappa, V domains shown)
VH: QVQLQQWGAGLLKPSETLSLTCAVYGGSFSGYYWSWIRQSPEKGLEWIGEINHGGYVTYNPSLESRVTISVDTSKNQFSLKLSSVTAADTAVYYCARDYGPGNYDWYFDLWGRGTLVTVSS
VL: EIVLTQSPATLSLSPGERATLSCRASQSVSSYLAWYQQKPGQAPRLLIYDASNRATGIPARFSGSGSGTDFTLTISSLEPEDFAVYYCQQRSNWPPALTFGGGTKVEIKR
notes: also called Control B
For B4, the “ELISA color development level” value (CRD1 [24]) was 1.75, the “ELISA color development level” value (CRD3-4 [25]) was 0.074 and the “ELISA color development level” value [26] was 2.67. For the same binder, the “ELISA color development level” value (CRD1-2 [27]) was 2.58, the “ELISA color development level” value (CRD2-4 [28]) was 0.097 and the “ELISA color development level” value (CRD2-3 [29]) was 0.089. For the same binder, the “ELISA color development level” value (CRD1-3 [30]) was 2.33, the “Ratio with respect to Non-Coating” value (CRD1 [20]) was 35.7 and the “Ratio with respect to Non-Coating” value (CRD3-4 [7]) was 1.5. For the same binder, the “Ratio with respect to Non-Coating” value [8] was 54.6, the “Ratio with respect to Non-Coating” value (CRD1-2 [9]) was 52.7 and the “Ratio with respect to Non-Coating” value (CRD2-4 [10]) was 2. The “Ratio with respect to Non-Coating” value (CRD2-3 [11]) was 1.8 and the “Ratio with respect to Non-Coating” value (CRD1-3 [12]) was 47.5.

Reference: patent publication US20170022287A1 (Chugai, published 2017)
